The numbers were not newly measured in publication PMC7925366, which cites them from elsewhere.

“And” between values parts separate entries of the source, which are not always exact repeats. Equal values may be shown once. Read-outs that look alike come from different tables or passages of the source.

Data set [1] deals with vimentin coils 1A and 1B (Homo sapiens) (UniProt P08670).
For data set [2] the target is unchanged. Description: MST.

UniProt P08670, sequence (P08670 96-245): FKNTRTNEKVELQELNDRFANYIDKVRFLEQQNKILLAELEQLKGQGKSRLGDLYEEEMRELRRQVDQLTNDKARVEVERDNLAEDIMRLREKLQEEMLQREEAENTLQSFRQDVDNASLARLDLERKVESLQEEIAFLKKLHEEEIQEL

Take envoplakin PRD (from UniProt Q92817): the Kd (as a rule, a measure of binding affinity in units of concentration) in data set [1] is 19 µM. For the substance “periplakin linker domain (from UniProt O60437)”, the Kd in data set [2] was 31 µM and 70 µM.
